Substrate: NC(=O)c1ccc[n+]([C@@H]2O[C@H](COP(=O)(O)OP(=O)(O)OC[C@H]3O[C@@H](n4cnc5c(N)ncnc54)[C@H](O)[C@@H]3O)[C@@H](O)[C@H]2O)c1
Assay: nick closing activity; fluorescein-labelled oligonucleotide ligated to biotinylated oligonucleotide on streptavidin plate
Format: biochemical, Wolbachia endosymbiont of Brugia malayi
Conditions: nicked DNA duplex substrate, 20 mM Tris-HCl pH 8.0, 10 mM MgCl2, 10 mM (NH4)2SO4, 1.2 mM EDTA, 25 °C, 5 nM enzyme, NAD+ 0-30 µM, varied: cofactor

B1: wBm-LigA (NAD+-dependent DNA ligase of Wolbachia endosymbiont of Brugia malayi) (Wolbachia endosymbiont strain TRS of Brugia malayi) (protein)
chain: MADLEKMIEEFTKLRDQISYHDVLYHQKSKPEIADAEYDKLKQKLVEMEGQLPGACVTQDGVGAAPDEKFSKIKHREPMLSLENAYDEQGVERFLSRIKRFLIEEEIEVFCEPKIDGLSFSAVYEDGRFVKAATRGDGFIGEDVTRNVATIKGFPRFLQDVQDRLEVRGEIYINNSDFLKLNKDNEFANPRNAAAGSLKQLDVSITANRPLKYFAYSLIGGKEKSQSEVLNRLESLGFCVNEHRSLTNNLSGMLEFYNKVYNCRYSLDYDIDGIVYKVNDLILQSRLGSTHKAPRSALAYKFSAVYAKTKLNKIFIQVGRTGVLTPVADLIPVNIGGVLVSRANLHNQDEIKRKDVREGDIVTIKRAGDVIPQIVRVDKGSRHADAPGFVFPEICPECGGKVQAEGAAIRCSEELTCKAQIIGKLSHFVSKGAFDIFGLGEKQIKFFYDLGLIKQIPDIFNLEERLNEFSLKEQPDWGERSIANLLNAIQNRRVITLDRFIFSLGIRFIGQVAAELLANYYVSYNNWYNSMIKLLSNDAEVGVGGVEKKIAKSFSDELVGIDGIGEKVAESLKSFFSKEHNIKMLKDLTDYLQILSVNSNSSNSVLNNKVIVFTGKLLTMSRGEAKVRAKALGAKVSSNLSAKIDYLVAGEKPGNKYKKAVELGVGILNEDQWYRMINSEVSE
notes: full length, 683 residues (ORF 2052 bp), pET28a(+), His6 tags at N and C terminus kept, expressed in E. coli Rosetta, Ni-NTA purified, ~75 kDa
Km: 4.8 µM

Source: article PMC3397958, “Molecular Characterization of NAD^+-Dependent DNA Ligase from Wolbachia Endosymbiont of Lymphatic Filarial Parasite Brugia malayi” (PLoS ONE, 2012)
